According to article PMC6168597, “Mutations at the hydrophobic core affect Hal3 trimer stability, reducing its Ppz1 inhibitory capacity but not its PPCDC moonlighting function” (Scientific Reports, 2018):

T1: GST-fused full length Ppz1 (S. cerevisiae, UniProt P26570 1-692)
T1 construct: Ser/Thr protein phosphatase Ppz1, S. cerevisiae, full length; also called GST-Ppz1; source: E. coli BL21 (DE3) RIL, purified on glutathione-agarose
T1 sequence (looked up): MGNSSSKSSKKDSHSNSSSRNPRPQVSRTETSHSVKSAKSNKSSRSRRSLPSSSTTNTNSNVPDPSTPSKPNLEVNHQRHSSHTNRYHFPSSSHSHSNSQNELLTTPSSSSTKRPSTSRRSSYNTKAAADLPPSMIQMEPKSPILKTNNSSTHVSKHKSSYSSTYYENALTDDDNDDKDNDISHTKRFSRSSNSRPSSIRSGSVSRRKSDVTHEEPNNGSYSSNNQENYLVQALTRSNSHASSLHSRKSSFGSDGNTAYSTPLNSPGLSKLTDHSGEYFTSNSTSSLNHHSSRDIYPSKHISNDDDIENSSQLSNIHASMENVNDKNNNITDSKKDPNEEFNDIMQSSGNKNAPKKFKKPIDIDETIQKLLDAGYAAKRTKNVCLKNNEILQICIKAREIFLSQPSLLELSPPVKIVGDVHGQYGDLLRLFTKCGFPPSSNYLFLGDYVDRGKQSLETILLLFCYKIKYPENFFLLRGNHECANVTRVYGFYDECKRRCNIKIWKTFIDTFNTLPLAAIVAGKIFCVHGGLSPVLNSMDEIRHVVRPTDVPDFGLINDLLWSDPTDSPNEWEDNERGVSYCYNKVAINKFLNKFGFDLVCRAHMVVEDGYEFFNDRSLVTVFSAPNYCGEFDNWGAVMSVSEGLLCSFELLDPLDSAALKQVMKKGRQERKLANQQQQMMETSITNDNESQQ


Tests used:
[1] = biological target: the molecule itself; assay: cross-linking; purified GST-free proteins (1 or 2 ug) treated with 0.01% glutaraldehyde, SDS-PAGE, Coomassie staining
[2] = biological target: T1, GST-fused full length Ppz1; assay: pull-down; 4 ug GST-Ppz1 or GST-Ppz1-Cter on glutathione-agarose beads, 600 ug protein extract of IM021 yeast expressing HA-tagged ScHal3 versions, anti-HA immunoblot; signal related to Ponceau-stained bait, native ScHal3 as the unit; details: one partner purified

Row | interaction relative to native ScHal3 [2] [%] | Binder | stoichiometry N [1]
1 | – | Arabidopsis thaliana Hal3 (AtHal3a), native, recombinant, GST removed (enzyme, UniProt Q9SWE5 1-209, looked up, AtHal3a, Arabidopsis thaliana, wild type ORF amplified from the AtHal3a cDNA and cloned into pGEX-6P-1; Flavoprotein (FMN); Theoretical mass of the trimer ~69 kDa; also called native AtHal3; source: E. coli BL21 (DE3) RIL, GST fusion purified on glutathione-agarose, GST cleaved with PreScission protease) MENGKRDRQDMEVNTTPRKPRVLLAASGSVAAIKFGNLCHCFTEWAEVRAVVTKSSLHFLDKLSLPQEVTLYTDEDEWSSWNKIGDPVLHIELRRWADVLVIAPLSANTLGKIAGGLCDNLLTCIIRAWDYTKPLFVAPAMNTLMWNNPFTERHLLSLDELGITLIPPIKKRLACGDYGNGAMAEPSLIYSTVRLFWESQAHQQTGGTS | 3
2 | – | AtHal3 G115N L117E, recombinant, GST removed (enzyme, Arabidopsis thaliana, UniProt Q9SWE5 1-209, looked up, AtHal3a, Arabidopsis thaliana, ORF in pGEX-6P-1 with G115N and L117E; source: E. coli BL21 (DE3) RIL, GST fusion purified on glutathione-agarose, GST cleaved with PreScission protease) MENGKRDRQDMEVNTTPRKPRVLLAASGSVAAIKFGNLCHCFTEWAEVRAVVTKSSLHFLDKLSLPQEVTLYTDEDEWSSWNKIGDPVLHIELRRWADVLVIAPLSANTLGKIANGECDNLLTCIIRAWDYTKPLFVAPAMNTLMWNNPFTERHLLSLDELGITLIPPIKKRLACGDYGNGAMAEPSLIYSTVRLFWESQAHQQTGGTS | 3
3 | – | AtHal3 L117E, recombinant, GST removed (enzyme, Arabidopsis thaliana, UniProt Q9SWE5 1-209, looked up, AtHal3a, Arabidopsis thaliana, ORF in pGEX-6P-1 with L117E; source: E. coli BL21 (DE3) RIL, GST fusion purified on glutathione-agarose, GST cleaved with PreScission protease) MENGKRDRQDMEVNTTPRKPRVLLAASGSVAAIKFGNLCHCFTEWAEVRAVVTKSSLHFLDKLSLPQEVTLYTDEDEWSSWNKIGDPVLHIELRRWADVLVIAPLSANTLGKIAGGECDNLLTCIIRAWDYTKPLFVAPAMNTLMWNNPFTERHLLSLDELGITLIPPIKKRLACGDYGNGAMAEPSLIYSTVRLFWESQAHQQTGGTS | 3
4 | ~50 | HA-tagged ScHal3 L403N L405E expressed in S. cerevisiae from pWS93 (natural protein, UniProt P36024 1-562, looked up, Hal3 (Sis2), S. cerevisiae, with L403N and L405E; insert released from the pGEX construct and cloned into pWS93; also called the double mutated variant; source: S. cerevisiae IM021 (ppz1 hal3), expressed from pWS93, in protein extract) MTAVASTSGKQDADHNQSIECPRFSRGQKEILLDHEDAKGKDSIINSPVSGRQSISPTLSNATTTTTKSIMNATGTSGAVVSNTPEPGLKRVPAVTFSDLKQQQKQDSLTQLKNDSERTKSPNSNPAPVSNSIPGNHAVIPNHTNTSRTTQLSGSPLVNEMKDYDPKKKDSALKIVDTMKPDKIMATSTPISRENNKVTAKAPTSITLRKEDAQDQANNVSGQINVRSTPEETPVKQSVIPSIIPKRENSKNLDPRLPQDDGKLHVLFGATGSLSVFKIKPMIKKLEEIYGRDRISIQVILTQSATQFFEQRYTKKIIKSSEKLNKMSQYESTPATPVTPTPGQCNMAQVVELPPHIQLWTDQDEWDAWKQRTDPVLHIELRRWADILVVAPLTANTLSKIANGECDNLLTSVIRAWNPSYPILLAPSMVSSTFNSMMTKKQLQTIKEEMSWVTVFKPSEKVMDINGDIGLGGMMDWNEIVNKIVMKLGGYPKNNEEEDDDEDEEEDDDEEEDTEDKNENNNDDDDDDDDDDDDDDDDDDDDDDDDEDEDEAETPGIIDKHQ | –
5 | – | S. cerevisiae Hal3 (ScHal3), native, recombinant, GST removed (natural protein, UniProt P36024 1-562, looked up, the methods speak of 'each full-length recombinant protein' and the predicted homotrimer is ~190 kDa; also called native ScHal3; WT; source: E. coli BL21 (DE3) RIL, GST fusion purified on glutathione-agarose, GST cleaved with PreScission protease) MTAVASTSGKQDADHNQSIECPRFSRGQKEILLDHEDAKGKDSIINSPVSGRQSISPTLSNATTTTTKSIMNATGTSGAVVSNTPEPGLKRVPAVTFSDLKQQQKQDSLTQLKNDSERTKSPNSNPAPVSNSIPGNHAVIPNHTNTSRTTQLSGSPLVNEMKDYDPKKKDSALKIVDTMKPDKIMATSTPISRENNKVTAKAPTSITLRKEDAQDQANNVSGQINVRSTPEETPVKQSVIPSIIPKRENSKNLDPRLPQDDGKLHVLFGATGSLSVFKIKPMIKKLEEIYGRDRISIQVILTQSATQFFEQRYTKKIIKSSEKLNKMSQYESTPATPVTPTPGQCNMAQVVELPPHIQLWTDQDEWDAWKQRTDPVLHIELRRWADILVVAPLTANTLSKIALGLCDNLLTSVIRAWNPSYPILLAPSMVSSTFNSMMTKKQLQTIKEEMSWVTVFKPSEKVMDINGDIGLGGMMDWNEIVNKIVMKLGGYPKNNEEEDDDEDEEEDDDEEEDTEDKNENNNDDDDDDDDDDDDDDDDDDDDDDDDEDEDEAETPGIIDKHQ | 3
6 | – | ScHal3 L403N, recombinant, GST removed (natural protein, S. cerevisiae, UniProt P36024 1-562, looked up, Hal3 (Sis2), S. cerevisiae, in pGEX-6P-1 with L403N; also called the L403 variant; source: E. coli BL21 (DE3) RIL, GST fusion purified on glutathione-agarose, GST cleaved with PreScission protease) MTAVASTSGKQDADHNQSIECPRFSRGQKEILLDHEDAKGKDSIINSPVSGRQSISPTLSNATTTTTKSIMNATGTSGAVVSNTPEPGLKRVPAVTFSDLKQQQKQDSLTQLKNDSERTKSPNSNPAPVSNSIPGNHAVIPNHTNTSRTTQLSGSPLVNEMKDYDPKKKDSALKIVDTMKPDKIMATSTPISRENNKVTAKAPTSITLRKEDAQDQANNVSGQINVRSTPEETPVKQSVIPSIIPKRENSKNLDPRLPQDDGKLHVLFGATGSLSVFKIKPMIKKLEEIYGRDRISIQVILTQSATQFFEQRYTKKIIKSSEKLNKMSQYESTPATPVTPTPGQCNMAQVVELPPHIQLWTDQDEWDAWKQRTDPVLHIELRRWADILVVAPLTANTLSKIANGLCDNLLTSVIRAWNPSYPILLAPSMVSSTFNSMMTKKQLQTIKEEMSWVTVFKPSEKVMDINGDIGLGGMMDWNEIVNKIVMKLGGYPKNNEEEDDDEDEEEDDDEEEDTEDKNENNNDDDDDDDDDDDDDDDDDDDDDDDDEDEDEAETPGIIDKHQ | 3
7 | ~50 | HA-tagged ScHal3 L405E expressed in S. cerevisiae from pWS93 (natural protein, UniProt P36024 1-562, looked up, Hal3 (Sis2), S. cerevisiae, with L405E; insert released from the pGEX construct and cloned into pWS93; source: S. cerevisiae IM021 (ppz1 hal3), expressed from pWS93, in protein extract) MTAVASTSGKQDADHNQSIECPRFSRGQKEILLDHEDAKGKDSIINSPVSGRQSISPTLSNATTTTTKSIMNATGTSGAVVSNTPEPGLKRVPAVTFSDLKQQQKQDSLTQLKNDSERTKSPNSNPAPVSNSIPGNHAVIPNHTNTSRTTQLSGSPLVNEMKDYDPKKKDSALKIVDTMKPDKIMATSTPISRENNKVTAKAPTSITLRKEDAQDQANNVSGQINVRSTPEETPVKQSVIPSIIPKRENSKNLDPRLPQDDGKLHVLFGATGSLSVFKIKPMIKKLEEIYGRDRISIQVILTQSATQFFEQRYTKKIIKSSEKLNKMSQYESTPATPVTPTPGQCNMAQVVELPPHIQLWTDQDEWDAWKQRTDPVLHIELRRWADILVVAPLTANTLSKIALGECDNLLTSVIRAWNPSYPILLAPSMVSSTFNSMMTKKQLQTIKEEMSWVTVFKPSEKVMDINGDIGLGGMMDWNEIVNKIVMKLGGYPKNNEEEDDDEDEEEDDDEEEDTEDKNENNNDDDDDDDDDDDDDDDDDDDDDDDDEDEDEAETPGIIDKHQ | –
